Values of other authors in publication PMC6389863.

Assays:
Glu73 = Glu73 (UniProt position 120, GRTWREADINY)
His72 = His72 (UniProt position 73, GINTAHKARQV)
Asp102 = Asp102 (UniProt position 102, LTINNDITLLK)
His18 = His18 (UniProt position 19, KCAQCHTVEKG)
Lys39 = Lys39 (UniProt position 39, EFPGGKIEMGE)
Cys25 [1] = target: Cys25 (UniProt position 158, GSCGSCWAFSA)
Cys25 [2] = target: Cys25 (UniProt position 157, GSCGSCWAFSA)
Asp76 = Asp76 (UniProt position 102, GSPGADRVVFN)
Asp70 = Asp70 (UniProt position 70, KLFNQDVDAAV)
Asp26 = Asp26 (UniProt position 26, KLVVVDFSATW); settings: reduced (active-site dithiol) thioredoxin
Tyr149 = Tyr149 (UniProt position 149, TPQSPYGKSKL)
Cys87 = Cys87 (UniProt position 87, RLGRICLDVLK)
His149 = His149 (UniProt position 177, ITFTNHVNAWK)

Barnase (not stated (inferred Bacillus amyloliquefaciens))
pKa (Glu73): 2.1

Bovine heart phosphotyrosyl phosphatase (low molecular weight PTP) (Bos taurus)
pKa (His72): 9.19

Calbindin D9k (bovine) (Bos taurus)
pKa (Lys55): 12.12

Chymotrypsinogen A (bovine) (Bos taurus)
pKa (Asp102): 1.36

Cytochrome c (horse) (Equus caballus)
pKa (His18): 2.5

MutT enzyme (not stated (inferred Escherichia coli))
pKa (Lys39): 8.4

Ovomucoid third domain, silver pheasant (OMSVP3) (Lophura nycthemera (silver pheasant))
pKa (Tyr31): 12.5

Papain (Carica papaya (inferred))
pKa (Cys25 [1]): 3.32

Papaya protease (PDB 1PPO; caricain / papaya protease omega) (Carica papaya (inferred))
pKa (Cys25 [2]): 2.88

Ribonuclease T1 (RNase T1) (not stated (inferred Aspergillus oryzae))
pKa (Asp76): 0.5

T4 lysozyme (Enterobacteria phage T4 (inferred))
pKa (Asp70): 0.5

Thioredoxin (human, reduced) (Homo sapiens)
pKa (Asp26): 9.9

UDP-galactose 4-epimerase (Escherichia coli)
pKa (Tyr149): 6.08

Ubiquitin-conjugating enzyme Ubc13 (not stated (PDB 1JBB is Saccharomyces cerevisiae Ubc13, inferred))
pKa (Cys87): 11.1

Xylanase (Bacillus circulans xylanase) (Bacillus circulans (from the title of ref 20))
pKa (His149): <2.3
